Experimental data from US20110002945A1.

Assays:
[1] = biological target: fibrillar Aβ1-40 peptide (Homo sapiens (Human)) (UniProt P05067)
[2] = biological target: recombinant λ6-variable domain light chain Jto in fibrillar form; experiment: binding to plate-immobilized fibrils
[3] = biological target: recombinant λ6-variable domain light chain Jto in fibrillar form; experiment: EuLISA on plate-immobilized fibrils

fibrillar Aβ1-40 peptide (Homo sapiens (Human)), sequence (P05067 672-711 limits assumed): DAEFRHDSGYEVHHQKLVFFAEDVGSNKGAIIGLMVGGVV

- Aβ fibril growth (recruitment of soluble biotinylated Aβ monomer to plate-bound Aβ1-40 fibrils, EuLISA) [1]: 1 µM
- affinity [2]: 20 nM
- EC50 [3]: 24 nM
- Max. Eu3+ [3]: 195 fmol
B1: antibody heavy chain F1 (protein)
heavy: AMDWTWSILFLVAAATGAHSQVQLVQSGAEVKKPGASVKVSCKASGYTFSSNGIIWVRQAPGQGLEWLGWISGYNGKTRYAQKVQGRVTITTDTSTSTAYMELRSLRSDDTAVYYCAREKTMVRGAISGYSDYWGQGTLVTVSSASTKGPSVFPLAPSSKSTSGGTAALGCLVKDYFPEPVTVSWNSGALTSGVHTFPAVLQSSGLYSLSSVVTVPSSSLGTQTYICNVNHKPSNTKVDKKRVEPKSCDKTHTCPPCPAPELLGGPSVFLFPPKPKDTLMISRTPEVTCVVVDVSHEDPEVKFNWYVDGVEVHNAKTKPREEQYNSTYRVVSVLTVLDHQDWLNGKEYKCKVSNKALPAPIEKTISKAKGQPREPQVYTLPPSREELMTKNQVSLTCLVKGFYPSDIAVEWESNGQPENNYKTTPPVLDSDGSFFLYSKLTVDKSRWQQGNVFSCSVMHEALHNHYTQKSLSLSPGK
